Publication PMC4977154, “Structural mechanism of ligand activation in human calcium-sensing receptor” (eLife, 2016)

How the values were obtained:
[1] = biological target: the molecule itself; assay: SEC; Superdex-200 size exclusion chromatography of secreted wild-type CaSR ECD; 20 mM Tris pH 8.0, 150 mM NaCl
[2] = biological target: the molecule itself; assay: crystal structure; form I crystal, space group F222, one molecule per asymmetric unit, homodimer with a crystallographic symmetry-related molecule; 1.5 M Li2SO4, 100 mM Tris pH 8.5, 2 mM CaCl2, 20°C; inactive (open-open) state
[3] = biological target: the molecule itself; assay: SDS gel under reducing and non-reducing conditions; purified CaSR ECD mutant (N386Q, S402N, N468Q) after Superdex-200, with (+DTT) and without (-DTT) reducing agent

B1: wild-type human CaSR ECD (domain or fragment, UniProt P41180 20-612, looked up)
chain: YGPDQRAQKKGDIILGGLFPIHFGVAAKDQDLKSRPESVECIRYNFRGFRWLQAMIFAIEEINSSPALLPNLTLGYRIFDTCNTVSKALEATLSFVAQNKIDSLNLDEFCNCSEHIPSTIAVVGATGSGVSTAVANLLGLFYIPQVSYASSSRLLSNKNQFKSFLRTIPNDEHQATAMADIIEYFRWNWVGTIAADDDYGRPGIEKFREEAEERDICIDFSELISQYSDEEEIQHVVEVIQNSTAKVIVVFSSGPDLEPLIKEIVRRNITGKIWLASEAWASSSLIAMPQYFHVVGGTIGFALKAGQIPGFREFLKKVHPRKSVHNGFAKEFWEETFNCHLQEGAKGPLPVDTFLRGHEESGDRFSNSSTAFRPLCTGDENISSVETPYIDYTHLRISYNVYLAVYSIAHALQDIYTCLPGRGLFTNGSCADIKKVEAWQVLKHLRHLNFTNNMGEQVTFDECGDLVGNYSIINWHLSPEDGSIVFKEVGYYNVYAKKGERLFINEEKILWSGFSREVPFSNCSRDCLAGTRKGIIEGEPTCCFECVECPDGEYSDETDASACNKCPDDFWSNENHTSCIAKEIEFLSWTEPF
modifications: heavily glycosylated
notes: signal peptide in the construct; human calcium-sensing receptor (CaSR), extracellular domain, residues 1-612; The C-terminal Flag tag is told for 'each construct' in the paragraph on the mutants; the wild type was also purified on anti-Flag M2 and held by anti-Flag M2 in the scintillation proximity assay with L-Trp (not a protein-protein experiment); also called wt-CaSR ECD; extracellular domain …
binding result [1]: binds

B2: human CaSR ECD mutant carrying two glycosylation-site mutations (N386Q, S402N), partially deglycosylated with Endo H (domain or fragment, UniProt P41180 20-612, looked up)
chain: YGPDQRAQKKGDIILGGLFPIHFGVAAKDQDLKSRPESVECIRYNFRGFRWLQAMIFAIEEINSSPALLPNLTLGYRIFDTCNTVSKALEATLSFVAQNKIDSLNLDEFCNCSEHIPSTIAVVGATGSGVSTAVANLLGLFYIPQVSYASSSRLLSNKNQFKSFLRTIPNDEHQATAMADIIEYFRWNWVGTIAADDDYGRPGIEKFREEAEERDICIDFSELISQYSDEEEIQHVVEVIQNSTAKVIVVFSSGPDLEPLIKEIVRRNITGKIWLASEAWASSSLIAMPQYFHVVGGTIGFALKAGQIPGFREFLKKVHPRKSVHNGFAKEFWEETFNCHLQEGAKGPLPVDTFLRGHEESGDRFSQSSTAFRPLCTGDENINSVETPYIDYTHLRISYNVYLAVYSIAHALQDIYTCLPGRGLFTNGSCADIKKVEAWQVLKHLRHLNFTNNMGEQVTFDECGDLVGNYSIINWHLSPEDGSIVFKEVGYYNVYAKKGERLFINEEKILWSGFSREVPFSNCSRDCLAGTRKGIIEGEPTCCFECVECPDGEYSDETDASACNKCPDDFWSNENHTSCIAKEIEFLSWTEPF
modifications: partially deglycosylated with Endo H; N-acetyl-glucosamine seen at Asn261, Asn287, Asn446, Asn468, Asn488, Asn541, Asn594; inter-subunit disulfide bond formed by C129
notes: signal peptide in the construct; human calcium-sensing receptor (CaSR), extracellular domain, residues 1-612; modelled residues 21-130 and 136-603; Disulfide-linked homodimer; cloned into the pFBDM vector; also called calcium-sensing receptor extracellular domain; form I crystal protein; source: sf9 insect cells infected with baculovirus, with kifunensine, secreted
binding result [2]: binds

B3: human CaSR ECD mutant carrying three glycosylation-site mutations (N386Q, S402N and N468Q) (domain or fragment, UniProt P41180 20-612, looked up)
chain: YGPDQRAQKKGDIILGGLFPIHFGVAAKDQDLKSRPESVECIRYNFRGFRWLQAMIFAIEEINSSPALLPNLTLGYRIFDTCNTVSKALEATLSFVAQNKIDSLNLDEFCNCSEHIPSTIAVVGATGSGVSTAVANLLGLFYIPQVSYASSSRLLSNKNQFKSFLRTIPNDEHQATAMADIIEYFRWNWVGTIAADDDYGRPGIEKFREEAEERDICIDFSELISQYSDEEEIQHVVEVIQNSTAKVIVVFSSGPDLEPLIKEIVRRNITGKIWLASEAWASSSLIAMPQYFHVVGGTIGFALKAGQIPGFREFLKKVHPRKSVHNGFAKEFWEETFNCHLQEGAKGPLPVDTFLRGHEESGDRFSQSSTAFRPLCTGDENINSVETPYIDYTHLRISYNVYLAVYSIAHALQDIYTCLPGRGLFTNGSCADIKKVEAWQVLKHLRHLQFTNNMGEQVTFDECGDLVGNYSIINWHLSPEDGSIVFKEVGYYNVYAKKGERLFINEEKILWSGFSREVPFSNCSRDCLAGTRKGIIEGEPTCCFECVECPDGEYSDETDASACNKCPDDFWSNENHTSCIAKEIEFLSWTEPF
modifications: N-acetyl-glucosamine seen at Asn90, Asn287, Asn488, Asn541 of one protomer and Asn541 of the other
notes: signal peptide in the construct; human calcium-sensing receptor (CaSR), extracellular domain, residues 1-612; modelled residues 20-119, 135-359, 393-598 in one protomer and 22-122, 136-360, 392-602 in the other; Disulfide-tethered homodimer; cloned into the pFBDM vector; also called calcium-sensing receptor extracellular domain; form II crystal protein; source: sf9 insect cells infected with …
binding result [3]: binds
